The target in experiment [1] is sLe^x-capped P-selectin glycoprotein ligand-1 (PSGL-1) (UniProt Q14242). As to the kind of experiment: cell-based or functional assay.
In experiment [2] the target is T1, sLe^x-capped P-selectin glycoprotein ligand-1 (PSGL-1) (UniProt Q14242 42-412, capped with the sialyl Lewis x (sLe^x) O-glycan).
T1 sequence: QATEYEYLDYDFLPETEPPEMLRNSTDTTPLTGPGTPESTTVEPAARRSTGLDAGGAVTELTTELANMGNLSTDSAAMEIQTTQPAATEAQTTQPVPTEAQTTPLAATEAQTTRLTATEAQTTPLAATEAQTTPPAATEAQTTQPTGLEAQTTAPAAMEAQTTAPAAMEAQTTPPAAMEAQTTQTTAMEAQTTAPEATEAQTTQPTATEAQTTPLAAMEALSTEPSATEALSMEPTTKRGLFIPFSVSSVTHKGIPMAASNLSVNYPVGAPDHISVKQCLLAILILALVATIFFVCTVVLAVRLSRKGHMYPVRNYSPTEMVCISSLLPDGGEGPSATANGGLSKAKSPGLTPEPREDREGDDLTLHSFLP
Put plainly: cell-based or functional assay.

Values joined by “and” are separate entries in the source; they are usually repeats but may differ in a detail not shown here. Equal entries are not always repeated.

In the case of “KPL-1, PSGL-1 N-terminus-specific antibody”, the numbers of bound DC organisms per PSGL-1 CHO cell after incubating PSGL-1 CHO cells with KPL-1 (fold reduction) in experiment [1] was 2 and 3.

B1: OmpA (outer membrane protein A) on the surface of A. phagocytophilum DC organisms (other)
chain: CGTLLPDSNVGVGRHDLGSHRSVAFAKKVEKVYFDIGKYDLKGPGKKVILELVEQLRQDDSMYLVVIGHADATGTEEYSLALGEKRANAVKQFIIGCDKSLAPRVTTQSRGKAEPEVLVYSTDAQEVEKANAQNRRAVIVVEFAHIPRSGVADMHAPVASSITSENSNASAEGEDMEASEFSSAIAN
B1: the “bacterial binding to PSGL-1 CHO cells after pretreating bacteria with anti-OmpA” value in experiment [2] is around 2 fold reduction.
